# Measurements: patent US20050203007A1 (REGENTS OF THE UNIVERSITY OF MICHIGAN, published 2005)
# Where a chain is given by its changes, count along the chain named.
# B1: Gly49-R4R1-eglin (Tyr49 to Gly) (designed binder)
# chain: SMGSELKSFPEVVGKTVDQAREYFTLHYPQYDVYFLPEGSRVTRDLRGNRVRVFYNPGTNVVNHVPHVG
# notes: tested as partially purified extract
# B2: R1-eglin (designed binder)
# chain: B1 chain with R41P, G48Y
# notes: also called Arg45-eglin c
# B3: L1-eglin (other)
# chain: B1 chain with R41P, R44L, G48Y
# notes: Recombinant eglin with the natural reactive site loop; also called wild type eglin; wild type eglin (Leu45)
# B4: M4R1-eglin (designed binder)
# chain: B1 chain with R41M, G48Y
# notes: N-terminal Met removed
# B5: V33D49-R4R1-eglin (designed binder)
# chain: B1 chain with D32V, G48D
# notes: N-terminal Met removed; also called Asp49Val33-R4R1-eglin-c
# B6: Val49-R4R1-eglin (Tyr49 to Val) (designed binder)
# chain: B1 chain with G48V
# notes: as for B1
# B7: Tyr49Cys-R4R1-eglin (designed binder)
# chain: B1 chain with G48C
# notes: N-terminal Met removed; also called the Cys variant
# B8: Pro38Leu Tyr49Cys R4R1-eglin (designed binder)
# chain: B1 chain with P37L, G48C
# notes: as for B1
# Assays:
# [1] = target: T1, secreted, soluble furin (human, UniProt P09958 108-715, limits assumed); assay: rapid inhibition assay; listed as potent inhibitor of furin
# T1 construct: Secreted, soluble construct; also called human furin
# Protocol: (§1) 5. Rapid protease inhibition assay. Novel eglin variants were diluted 50-fold and incubated with secreted, soluble furin (0.5 nM) for 15 min in 96-well plates. The furin substrate (Boc-Arg-Val-Arg-Arg-MCA) was added, and release of AMC was monitored continuously in a 96-well fluorescence plate reader for 20 min, as described under Example 1. […] The plasmid DNA encoding such eglin c variant inhibitors were isolated and sequenced.
# [2] = target: T1, secreted, soluble furin; assay: equilibrium enzyme inhibition
# Protocol: (§2) Thus, R1-eglin refers to substitution of Arg at position P1.
# (§3) Affinities of eglin variants with secreted, soluble Kex2 (hereafter “Kex2”; Brenner, C. and Fuller, R. S. (1992) Proc. Natl. Acad. Sci. USA 89: 922-926) and secreted, soluble furin (hereafter, “furin”; Bravo, D. A. et al (1994) J. Biol. Chem. 269: 25830-25837; and Komiyama & Fuller (2000) Biochemistry 39: 15156-15165) were measured by incubating variants with the enzymes (˜0.5 to 2.0 nM) for 45 min to 1 h at 21° C. in one of two enzyme assay buffers. For Kex2, the buffer was 200 mM Bistris (pH 7.27) containing 1 mM CaCl₂ and 0.1% Triton X-100; and for furin, the buffer was 20 mM NaMES (pH 7.0) containing 1 mM CaCl₂ and 0.1% Triton X-100 for furin.
# [3] = target: T2, secreted, soluble Kex2 (Saccharomyces cerevisiae, UniProt P13134 114-613, limits assumed); assay: equilibrium enzyme inhibition
# T2 construct: Secreted, soluble construct; also called kexin
# T2 sequence (looked up): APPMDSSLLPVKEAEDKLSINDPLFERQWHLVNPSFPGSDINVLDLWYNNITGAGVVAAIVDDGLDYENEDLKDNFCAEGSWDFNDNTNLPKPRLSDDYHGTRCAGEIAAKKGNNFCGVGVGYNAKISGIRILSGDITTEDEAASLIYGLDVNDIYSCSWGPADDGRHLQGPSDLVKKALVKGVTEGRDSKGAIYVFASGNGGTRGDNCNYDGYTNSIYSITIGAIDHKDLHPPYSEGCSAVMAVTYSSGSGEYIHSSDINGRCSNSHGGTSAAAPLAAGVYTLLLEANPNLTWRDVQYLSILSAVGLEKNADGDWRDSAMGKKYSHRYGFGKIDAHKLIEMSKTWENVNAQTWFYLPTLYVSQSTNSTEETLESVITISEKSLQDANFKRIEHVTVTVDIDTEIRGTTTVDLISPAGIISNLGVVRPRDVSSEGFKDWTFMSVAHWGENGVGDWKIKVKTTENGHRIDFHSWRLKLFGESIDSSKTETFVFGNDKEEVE
# Protocol: as §2, §3
# [4] = target: human plasmin (human, UniProt P00747 97-810, limits assumed); assay: enzyme inhibition; weak inhibition
# [5] = target: human plasma kallikrein (human, UniProt P03952 20-638); assay: enzyme inhibition; weak inhibition
# [6] = target: T1, secreted, soluble furin; assay: equilibrium enzyme inhibition, fluorogenic substrate
# Protocol: (§4) Affinities of eglin variants with secreted, soluble Kex2 (hereafter “Kex2”; Brenner, C. and Fuller, R. S. (1992) Proc. Natl. Acad. Sci. USA 89: 922-926) and secreted, soluble furin (hereafter, “furin”; Bravo, D. A. et al (1994) J. Biol. Chem. 269: 25830-25837; and Komiyama & Fuller (2000) Biochemistry 39: 15156-15165) were measured by incubating variants with the enzymes (˜0.5 to 2.0 nM) for 45 min to 1 h at 21° C. in one of two enzyme assay buffers. For Kex2, the buffer was 200 mM Bistris (pH 7.27) containing 1 mM CaCl₂ and 0.1% Triton X-100; and for furin, the buffer was 20 mM NaMES (pH 7.0) containing 1 mM CaCl₂ and 0.1% Triton X-100 for furin. 100 to 200 μL aliquots of reaction mixtures were transferred into triplicate wells of opaque 96 well plates (Costar), and residual enzyme activity was measured with an fmax fluorescence micro plate reader (Molecular Devices) by monitoring hydrolysis of a fluorogenic substrate Boc-Arg-Val-Arg-Arg-MCA. Data were graphically analyzed (KaleidaGraph) with an equation developed by Green and Work (1953). Site-directed mutagenesis at P2 and P6 of eglin c generated temporary inhibitors (Table 3) and exhausted possibility to improve affinity further with this approach.
# [7] = target: T2, secreted, soluble Kex2; assay: as above
# Protocol: as §4
# [8] = target: trypsin; assay: enzyme inhibition
# [9] = target: T3, subtilisin Carlsberg (UniProt P00780 106-379); assay: enzyme inhibition
# T3 sequence (looked up): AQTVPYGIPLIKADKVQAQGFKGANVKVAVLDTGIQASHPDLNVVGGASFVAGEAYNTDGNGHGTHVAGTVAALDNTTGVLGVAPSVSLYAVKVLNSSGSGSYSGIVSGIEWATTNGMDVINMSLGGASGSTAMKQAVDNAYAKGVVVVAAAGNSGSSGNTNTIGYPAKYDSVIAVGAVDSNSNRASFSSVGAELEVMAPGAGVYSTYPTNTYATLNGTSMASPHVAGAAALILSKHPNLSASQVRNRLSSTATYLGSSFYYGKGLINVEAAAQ
# [10] = target: T4, human neutrophil elastase (human, UniProt P08246 30-247); assay: enzyme inhibition, standard assay conditions
# T4 sequence (looked up): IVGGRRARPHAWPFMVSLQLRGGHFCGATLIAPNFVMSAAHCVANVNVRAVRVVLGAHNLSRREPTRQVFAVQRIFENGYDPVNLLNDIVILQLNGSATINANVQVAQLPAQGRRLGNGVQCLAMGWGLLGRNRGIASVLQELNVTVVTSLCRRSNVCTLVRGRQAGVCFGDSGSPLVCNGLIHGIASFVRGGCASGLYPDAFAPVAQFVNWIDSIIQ
# [11] = target: T3, subtilisin Carlsberg; assay: enzyme inhibition, standard assay conditions
# [12] = target: chymotrypsin; assay: enzyme inhibition, standard assay conditions
# [13] = target: T2, secreted, soluble Kex2; assay: estimated from koff
# Protocol: In some aspects of the present invention, biological application of the eglin c variants of the present invention as inhibitors of processing in vivo depends upon the rate of binding to target enzymes, where it is critical. Therefore, the rate of action of eglin variants with Kex2 and furin was examined by incubating 5×10⁻¹⁰ M enzyme with inhibitor at molar ratios of inhibitor to enzyme ranging from 10 to 80. […] The relationship between kobs and inhibitor concentration was linear. The values of kₒₙ were determined from the slope of such curves, and dissociation rate constants (koff) were calculated (koff=kₒₙ/Kₐ). For R4R1-eglin, koff was calculated to be 2×10⁻⁴s⁻¹ for Kex2, and 3×10⁻⁴s⁻¹ for furin. […] Similarly, the t_{1/2} of the complex of M4R1-eglin with Kex2 was estimated to be 3 h. For complex of R4K1-eglin with furin, koff was calculated to be 2×10⁻⁴s⁻¹ implying that the koff and t_{1/2} for this complex are similar to those for the complex of R4R1-eglin with furin.
# [14] = target: trypsin; assay: enzyme inhibition; temporary inhibitor of trypsin
# [15] = target: T5, human PC7 (human, UniProt Q16549 142-667, limits assumed); assay: enzyme inhibition, purified variant; Kassoc
# T5 sequence (looked up): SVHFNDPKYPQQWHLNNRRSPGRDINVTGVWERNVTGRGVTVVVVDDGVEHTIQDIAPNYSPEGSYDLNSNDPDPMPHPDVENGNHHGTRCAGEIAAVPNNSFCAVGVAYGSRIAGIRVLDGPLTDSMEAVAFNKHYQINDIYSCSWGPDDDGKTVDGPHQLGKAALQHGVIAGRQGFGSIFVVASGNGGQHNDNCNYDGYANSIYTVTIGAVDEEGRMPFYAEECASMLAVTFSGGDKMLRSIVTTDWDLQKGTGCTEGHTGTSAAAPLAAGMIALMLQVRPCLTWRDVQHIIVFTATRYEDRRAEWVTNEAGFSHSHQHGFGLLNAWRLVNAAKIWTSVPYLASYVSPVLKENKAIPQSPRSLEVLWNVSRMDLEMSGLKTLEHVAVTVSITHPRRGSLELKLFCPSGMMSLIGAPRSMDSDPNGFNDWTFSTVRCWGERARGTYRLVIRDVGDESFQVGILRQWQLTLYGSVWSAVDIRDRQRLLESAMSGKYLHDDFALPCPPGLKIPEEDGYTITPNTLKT
# [16] = target: T1, secreted, soluble furin; assay: enzyme inhibition, purified variant; Kassoc
# [17] = target: T2, secreted, soluble Kex2; assay: enzyme inhibition, purified variant; Kassoc
# [18] = target: T1, secreted, soluble furin; assay: ratio of affinities, enzyme inhibition
# [19] = target: T2, secreted, soluble Kex2; assay: rapid inhibition assay; listed as potent inhibitor of Kex2
# [20] = target: T1, secreted, soluble furin; assay: rapid furin inhibition assay; table lists substitutions with equal or enhanced inhibition of furin relative to the template
# Protocol: 3. Rapid screening of libraries. Libraries were introduced into E. coli BL21 (DE3) cells and individual, cloned transformants were grown by shaking at 37° C. in 200 μl LB containing […] kanamycin in 96-well, 0.45 μm GHP membrane filter plates (Gelman) (FIG. 2). When O.D. 600 values reached 0.4, 60 μl of culture were transferred to secondary 96-well plates (Falcon), adjusted to 10% glycerol, and stored at −80° C. These frozen stocks served as master copies of the libraries. IPTG was added to the cultures to a final concentration of 1 mM, and the cultures were allowed to express eglin c variants for one hour in the filter plate. Expressed eglin c variants were extracted from the cells with 50 mM Tris-HCl pH 8.0 containing 2 mM EDTA following freezing and thawing. These extracts were collected as filtrates by centrifugation of the filter plate above a second plate. The filtrates, representing partially purified eglin c variants, were analyzed using a rapid fluorescence-based assay for processing enzyme inhibition as described below in Section 5. […] Frozen cells were cultured in 50 to 100 ml culture volumes, and DNA maxipreps were performed; the DNA preparations were then sequenced by automated DNA sequencing. Selected variants were expressed and purified on a larger scale, and affinities for furin or Kex2 were examined quantitatively (see below).
# as §1
# T1 sequence (P09958 108-715 limits assumed): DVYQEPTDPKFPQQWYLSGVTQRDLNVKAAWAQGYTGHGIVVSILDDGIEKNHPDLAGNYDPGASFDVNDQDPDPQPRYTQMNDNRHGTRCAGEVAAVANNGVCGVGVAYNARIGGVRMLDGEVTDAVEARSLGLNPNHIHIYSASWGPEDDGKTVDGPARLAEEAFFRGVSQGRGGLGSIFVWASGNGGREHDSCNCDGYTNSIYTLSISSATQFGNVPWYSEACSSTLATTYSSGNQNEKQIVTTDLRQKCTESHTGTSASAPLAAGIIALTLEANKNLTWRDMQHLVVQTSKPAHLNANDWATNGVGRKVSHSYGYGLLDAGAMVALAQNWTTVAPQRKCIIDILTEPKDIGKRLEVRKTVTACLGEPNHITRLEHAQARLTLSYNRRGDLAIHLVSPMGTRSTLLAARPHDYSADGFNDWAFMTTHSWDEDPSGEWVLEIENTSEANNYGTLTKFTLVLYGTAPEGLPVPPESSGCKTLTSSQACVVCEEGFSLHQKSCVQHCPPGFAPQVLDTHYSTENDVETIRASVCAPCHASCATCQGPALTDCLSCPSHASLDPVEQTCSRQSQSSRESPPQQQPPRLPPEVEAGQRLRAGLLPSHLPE
# Sequence of trypsin (P00760 24-246): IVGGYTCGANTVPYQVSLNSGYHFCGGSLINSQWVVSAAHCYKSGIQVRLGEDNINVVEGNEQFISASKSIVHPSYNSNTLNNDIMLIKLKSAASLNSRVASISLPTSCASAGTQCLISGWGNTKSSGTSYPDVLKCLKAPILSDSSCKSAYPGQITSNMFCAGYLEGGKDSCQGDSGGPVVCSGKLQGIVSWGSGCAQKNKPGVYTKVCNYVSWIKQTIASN
# Sequence of human plasma kallikrein (P03952 20-638 limits assumed): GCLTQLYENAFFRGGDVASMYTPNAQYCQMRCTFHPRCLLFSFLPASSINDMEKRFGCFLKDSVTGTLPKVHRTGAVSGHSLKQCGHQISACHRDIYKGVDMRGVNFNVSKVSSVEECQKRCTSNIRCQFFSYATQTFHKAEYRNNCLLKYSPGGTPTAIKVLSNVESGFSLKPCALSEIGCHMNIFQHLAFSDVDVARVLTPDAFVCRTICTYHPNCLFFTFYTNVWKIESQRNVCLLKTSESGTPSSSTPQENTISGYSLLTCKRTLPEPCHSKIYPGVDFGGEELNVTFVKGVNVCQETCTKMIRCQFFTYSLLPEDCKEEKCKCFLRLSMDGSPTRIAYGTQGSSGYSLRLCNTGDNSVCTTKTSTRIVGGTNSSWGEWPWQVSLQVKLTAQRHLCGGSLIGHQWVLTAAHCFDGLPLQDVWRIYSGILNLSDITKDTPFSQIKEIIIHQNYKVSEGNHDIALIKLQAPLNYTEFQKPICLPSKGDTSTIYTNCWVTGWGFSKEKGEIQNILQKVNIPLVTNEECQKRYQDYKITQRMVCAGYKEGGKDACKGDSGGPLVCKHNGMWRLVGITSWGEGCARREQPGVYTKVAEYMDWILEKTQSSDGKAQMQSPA
# Sequence of human plasmin (P00747 97-810 limits assumed): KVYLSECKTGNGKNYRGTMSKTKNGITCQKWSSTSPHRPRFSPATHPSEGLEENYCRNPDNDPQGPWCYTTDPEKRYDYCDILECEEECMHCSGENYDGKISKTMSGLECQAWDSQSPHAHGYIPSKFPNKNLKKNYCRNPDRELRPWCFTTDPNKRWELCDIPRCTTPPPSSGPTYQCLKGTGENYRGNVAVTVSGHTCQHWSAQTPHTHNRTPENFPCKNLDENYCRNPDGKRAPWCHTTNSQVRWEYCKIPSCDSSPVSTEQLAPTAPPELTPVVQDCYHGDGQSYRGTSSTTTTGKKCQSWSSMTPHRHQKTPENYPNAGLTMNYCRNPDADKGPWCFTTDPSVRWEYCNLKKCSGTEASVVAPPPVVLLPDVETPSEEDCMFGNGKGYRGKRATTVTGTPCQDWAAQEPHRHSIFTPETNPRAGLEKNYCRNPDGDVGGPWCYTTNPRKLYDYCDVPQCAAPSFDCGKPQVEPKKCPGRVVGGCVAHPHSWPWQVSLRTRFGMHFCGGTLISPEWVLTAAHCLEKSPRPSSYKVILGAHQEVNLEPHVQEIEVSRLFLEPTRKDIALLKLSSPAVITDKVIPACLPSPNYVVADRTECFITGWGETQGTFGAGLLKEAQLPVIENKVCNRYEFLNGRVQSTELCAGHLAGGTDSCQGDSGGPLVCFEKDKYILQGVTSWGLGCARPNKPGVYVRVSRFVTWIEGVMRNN
binder,measurement,setting,value
B1,binding result,[1],binds
B2,fold enhancement of affinity relative to L1-eglin,[2],2 to 3 fold
same,fold increase in affinity relative to L1-eglin,[2],2.5 fold
same,fold increase in affinity relative to L1-eglin,[3],10000 fold
same,Ka,[4],~1e+06 M⁻¹
same,Ka,[5],~1e+06 M⁻¹
same,Ki,[6],53 µM
same,Ki,[7],0.03 µM
same,Ka,[8],1.8e+10 M⁻¹
same,Ka,[9],1e+10 M⁻¹
B3,Ki,[6],120 µM
same,Ki,[7],~500 µM
same,Ka,[10],4.5e+10 M⁻¹
same,Ka,[11],6.7e+10 M⁻¹
same,Ka,[12],1.1e+10 M⁻¹
B4,fold increase in affinity relative to L1-eglin,[2],33 fold
same,fold increase in affinity relative to R1-eglin,[2],15 fold
same,fold higher affinity of Kex2 than of furin,[3],~10000 fold
same,fold increase in Ka relative to R1-eglin,[3],88 fold
same,fold increase in affinity relative to L1-eglin,[3],1.5e+06 fold
same,half-life (t1/2) of the complex,[13],3 h
same,Ka,[14],4.4e+10 M⁻¹
same,Ki,[6],3.6 µM
same,Ki,[7],0.00034 µM
same,Ka,[9],6.6e+10 M⁻¹
B5,Ka,[15],8.7e+07 M⁻¹
same,Ka,[16],3.7e+09 M⁻¹
same,Ka,[17],2.4e+10 M⁻¹
same,fold preference for furin over PC7,[18],42 fold
B6,binding result,[19],binds
B7,binding result,[20],binds
same,binding result,[19],binds
B8,binding result,[1],binds
